B1: TRAF3IP2 (parent)
chain: APWNYHYHCPGSPDHQVPYGHDYP
B2: NETO1 (parent)
chain: GFSPIIGRFCGQQNPPVIKSSGRF
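Further: lentivirally expressed fusions sorted by FACS into six bins by GFP to DsRed ratio, PSI derived from sequencing read proportions per bin multiplied by bin number.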

The first data set covers variants of B1. Briefly: protein stability index of a GFP-peptide fusion (GPS, HEK-293T) (PSI 1-6); higher = more stable. The following applies: c terminus: a fixed tail appended.
As for APWNYHYHCPGSPDHQVPYGHDDP, the protein stability index stood at 3.83.

With APWNYHYHCPGSPDHQVPYGHDHP, the protein stability index is 1.88.

As to APWNYHYHCPGSPDHQVPYGHDAP, the protein stability index came to 2.85.

Turning to APWNYHYHCPGSPDHQVPYGHDMP, the protein stability index is 2.25.

On to APWNYHYHCPGSPDHQVPYGHDQP, for which the protein stability index amounted to 2.92.

On to APWNYHYHCPGSPDHQVPYGHDLP, for which the protein stability index turned out to be 2.27.

Regarding APWNYHYHCPGSPDHQVPYGHDCP, the protein stability index is 1.91.

For the variant APWNYHYHCPGSPDHQVPYGHDEP, the protein stability index was found to be 3.61.

Take APWNYHYHCPGSPDHQVPYGHDVP: the protein stability index was 1.97.

Take APWNYHYHCPGSPDHQVPYGHDFP: the protein stability index was found to be 2.

For APWNYHYHCPGSPDHQVPYGHDGP, the protein stability index turned out to be 2.92.

Regarding APWNYHYHCPGSPDHQVPYGHDRP, the protein stability index was 2.9.

The variants in the next data set derive from B2. The data set is described as above. To be noted: c terminus: a fixed tail appended.
With GFSGIIGRFCGQQNPPVIKSSGRF, the protein stability index turned out to be 1.74.

As to GFSRIIGRFCGQQNPPVIKSSGRF, the protein stability index came to 1.82.

With GFSTIIGRFCGQQNPPVIKSSGRF, the protein stability index was 1.26.

For the variant GFSEIIGRFCGQQNPPVIKSSGRF, the protein stability index amounted to 2.33.

In the case of GFSWIIGRFCGQQNPPVIKSSGRF, the protein stability index was determined as 1.91.

With GFSVIIGRFCGQQNPPVIKSSGRF, the protein stability index was determined as 1.87.

In the case of GFSSIIGRFCGQQNPPVIKSSGRF, the protein stability index is 1.99.

As for GFSQIIGRFCGQQNPPVIKSSGRF, the protein stability index is 1.91.

For the variant GFSCIIGRFCGQQNPPVIKSSGRF, the protein stability index is 1.88.

For the variant GFSNIIGRFCGQQNPPVIKSSGRF, the protein stability index was 1.69.

Turning to GFSMIIGRFCGQQNPPVIKSSGRF, the protein stability index was 2.36.

For GFSDIIGRFCGQQNPPVIKSSGRF, the protein stability index came out at 1.57.

On to GFSHIIGRFCGQQNPPVIKSSGRF, for which the protein stability index came to 2.05.

Consider GFSYIIGRFCGQQNPPVIKSSGRF, for which the protein stability index was found to be 2.44.

With GFSKIIGRFCGQQNPPVIKSSGRF, the protein stability index was 2.59.

Regarding GFSAIIGRFCGQQNPPVIKSSGRF, the protein stability index was 2.12.

With GFSFIIGRFCGQQNPPVIKSSGRF, the protein stability index was 2.09.

For the variant GFSPDIGRFCGQQNPPVIKSSGRF, the protein stability index worked out at 2.92.

Turning to GFSPEIGRFCGQQNPPVIKSSGRF, the protein stability index was 3.22.

Take GFSPAIGRFCGQQNPPVIKSSGRF: the protein stability index worked out at 2.05.

For GFSPKIGRFCGQQNPPVIKSSGRF, the protein stability index was 2.75.

As to GFSPHIGRFCGQQNPPVIKSSGRF, the protein stability index was 2.59.

Turning to GFSPCIGRFCGQQNPPVIKSSGRF, the protein stability index came to 2.12.

In the case of GFSPFIGRFCGQQNPPVIKSSGRF, the protein stability index amounted to 1.79.

On to GFSPGIGRFCGQQNPPVIKSSGRF, for which the protein stability index was determined as 2.31.

On to GISPIIGRFCGQQNPPVIKSSGRF, for which the protein stability index came to 2.25.

Turning to GYSPIIGRFCGQQNPPVIKSSGRF, the protein stability index worked out at 2.02.

As to GQSPIIGRFCGQQNPPVIKSSGRF, the protein stability index was 2.91.

Consider GASPIIGRFCGQQNPPVIKSSGRF, for which the protein stability index worked out at 2.35.

For the variant GVSPIIGRFCGQQNPPVIKSSGRF, the protein stability index worked out at 2.13.

With GSSPIIGRFCGQQNPPVIKSSGRF, the protein stability index was found to be 2.75.

Regarding GTSPIIGRFCGQQNPPVIKSSGRF, the protein stability index stood at 2.46.

For GLSPIIGRFCGQQNPPVIKSSGRF, the protein stability index is 2.55.

On to GRSPIIGRFCGQQNPPVIKSSGRF, for which the protein stability index was 2.16.

Take GCSPIIGRFCGQQNPPVIKSSGRF: the protein stability index worked out at 2.73.

GWSPIIGRFCGQQNPPVIKSSGRF: the protein stability index was determined as 1.52.

With GESPIIGRFCGQQNPPVIKSSGRF, the protein stability index stood at 3.09.

Consider GHSPIIGRFCGQQNPPVIKSSGRF, for which the protein stability index came to 2.15.

For the variant GGSPIIGRFCGQQNPPVIKSSGRF, the protein stability index is 2.54.

For the variant GDSPIIGRFCGQQNPPVIKSSGRF, the protein stability index is 2.68.

In the case of GPSPIIGRFCGQQNPPVIKSSGRF, the protein stability index stood at 2.5.

GKSPIIGRFCGQQNPPVIKSSGRF: the protein stability index is 2.28.

Turning to GMSPIIGRFCGQQNPPVIKSSGRF, the protein stability index came out at 2.

For GNSPIIGRFCGQQNPPVIKSSGRF, the protein stability index is 2.78.

For KFSPIIGRFCGQQNPPVIKSSGRF, the protein stability index came out at 2.18.

On to FFSPIIGRFCGQQNPPVIKSSGRF, for which the protein stability index turned out to be 1.86.

EFSPIIGRFCGQQNPPVIKSSGRF: the protein stability index turned out to be 1.7.

Turning to DFSPIIGRFCGQQNPPVIKSSGRF, the protein stability index turned out to be 1.6.

Consider LFSPIIGRFCGQQNPPVIKSSGRF, for which the protein stability index worked out at 2.27.

With WFSPIIGRFCGQQNPPVIKSSGRF, the protein stability index turned out to be 2.02.

As to AFSPIIGRFCGQQNPPVIKSSGRF, the protein stability index was 2.17.

As for RFSPIIGRFCGQQNPPVIKSSGRF, the protein stability index turned out to be 1.98.

Turning to PFSPIIGRFCGQQNPPVIKSSGRF, the protein stability index turned out to be 2.25.

Consider HFSPIIGRFCGQQNPPVIKSSGRF, for which the protein stability index was 1.66.

Consider VFSPIIGRFCGQQNPPVIKSSGRF, for which the protein stability index was determined as 1.93.

In the case of YFSPIIGRFCGQQNPPVIKSSGRF, the protein stability index turned out to be 1.93.

For CFSPIIGRFCGQQNPPVIKSSGRF, the protein stability index was determined as 1.6.

Regarding QFSPIIGRFCGQQNPPVIKSSGRF, the protein stability index is 2.03.

Turning to NFSPIIGRFCGQQNPPVIKSSGRF, the protein stability index was determined as 1.85.

In the case of IFSPIIGRFCGQQNPPVIKSSGRF, the protein stability index worked out at 2.

Take TFSPIIGRFCGQQNPPVIKSSGRF: the protein stability index stood at 1.8.

As for MFSPIIGRFCGQQNPPVIKSSGRF, the protein stability index turned out to be 1.98.

With SFSPIIGRFCGQQNPPVIKSSGRF, the protein stability index turned out to be 2.04.

On to GFPPIIGRFCGQQNPPVIKSSGRF, for which the protein stability index came out at 1.75.

As for GFFPIIGRFCGQQNPPVIKSSGRF, the protein stability index worked out at 2.56.

Take GFVPIIGRFCGQQNPPVIKSSGRF: the protein stability index turned out to be 2.03.

Turning to GFWPIIGRFCGQQNPPVIKSSGRF, the protein stability index turned out to be 1.75.

As to GFYPIIGRFCGQQNPPVIKSSGRF, the protein stability index is 1.53.

Turning to GFHPIIGRFCGQQNPPVIKSSGRF, the protein stability index stood at 2.03.

Turning to GFTPIIGRFCGQQNPPVIKSSGRF, the protein stability index was 2.4.

For GFMPIIGRFCGQQNPPVIKSSGRF, the protein stability index came to 1.84.

With GFGPIIGRFCGQQNPPVIKSSGRF, the protein stability index was 2.2.

As to GFIPIIGRFCGQQNPPVIKSSGRF, the protein stability index stood at 1.71.

As to GFQPIIGRFCGQQNPPVIKSSGRF, the protein stability index amounted to 2.49.

In the case of GFDPIIGRFCGQQNPPVIKSSGRF, the protein stability index was 2.41.

Consider GFCPIIGRFCGQQNPPVIKSSGRF, for which the protein stability index amounted to 1.22.

Take GFNPIIGRFCGQQNPPVIKSSGRF: the protein stability index was found to be 2.08.

As for GFKPIIGRFCGQQNPPVIKSSGRF, the protein stability index worked out at 2.47.

For GFEPIIGRFCGQQNPPVIKSSGRF, the protein stability index came to 2.78.

On to GFAPIIGRFCGQQNPPVIKSSGRF, for which the protein stability index came to 2.6.

Turning to GFLPIIGRFCGQQNPPVIKSSGRF, the protein stability index worked out at 1.68.

Consider GFRPIIGRFCGQQNPPVIKSSGRF, for which the protein stability index is 2.04.

Source of the values: the supplement of paper PMC10567573.
